What all share (format): biochemical
One assay deals with human trypsin. Put plainly: Inhibition of trypsin, fluorogenic substrate assay. The protocol:
(§1) The inhibitory potency of TFPI mut3 on the enzymatic activities of trypsin, plasmin and plasma kallikrein were determined with the aid of fluorogenic substrates in biochemical assays in white 384-well microtitre plates. The assay buffer was composed of 50 mM Tris/Cl, pH 7.4, 100 mM NaCl, 5 mM CaCl2, 0.08% (w/v) BSA. The assay conditions were specifically as follows:
(§2) 10 μl of a serial dilution of TFPI mut3EA were introduced into each well and preincubated with 20 μl of enzyme at RT for 5 min. The reaction was then started by adding 20 μl of substrate to each. The measurement took place after 60-90 min in a Tecan reader with an excitation wavelength of 360 nm and an emission wavelength of 465 nm. Dose-activity plots and half-maximum inhibitory constants (IC50 values) were determined using GraphPad Prism software (version 4.02).

For another assay, the target named is T1, human plasma kallikrein (Homo sapiens, UniProt P03952).
T1 construct: purchased Calbiochem 420307
T1 sequence (P03952 391-638 limits assumed): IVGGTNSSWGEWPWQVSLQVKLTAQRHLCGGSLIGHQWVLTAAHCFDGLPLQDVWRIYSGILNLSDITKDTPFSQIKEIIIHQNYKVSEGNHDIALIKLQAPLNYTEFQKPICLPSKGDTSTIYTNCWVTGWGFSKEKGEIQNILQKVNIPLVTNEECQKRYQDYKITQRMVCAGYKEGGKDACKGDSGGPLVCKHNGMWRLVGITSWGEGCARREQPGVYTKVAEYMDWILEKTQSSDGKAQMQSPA
T1 sequence (P03952 20-390 partner limits assumed): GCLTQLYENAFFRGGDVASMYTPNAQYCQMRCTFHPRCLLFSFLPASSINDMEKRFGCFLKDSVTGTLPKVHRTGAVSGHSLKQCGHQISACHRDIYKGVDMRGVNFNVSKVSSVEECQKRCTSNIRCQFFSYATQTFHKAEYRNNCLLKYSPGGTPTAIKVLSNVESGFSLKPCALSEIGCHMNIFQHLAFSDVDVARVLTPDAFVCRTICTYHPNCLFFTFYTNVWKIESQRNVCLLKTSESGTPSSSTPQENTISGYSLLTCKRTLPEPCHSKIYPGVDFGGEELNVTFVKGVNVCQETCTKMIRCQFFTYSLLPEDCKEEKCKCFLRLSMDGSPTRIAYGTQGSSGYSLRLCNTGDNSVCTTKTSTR
Briefly: Inhibition of plasma kallikrein, fluorogenic substrate assay. The note with it: human plasma kallikrein; read-out: Plasma kallikrein IC50. The protocol: as §1, §2

The next assay addresses T2, human plasmin (Homo sapiens, UniProt P00747).
T2 construct: enzymatic activities of trypsin, plasmin and plasma kallikrein; purchased Enzyme Research Hplas
Put plainly: Inhibition of plasmin, fluorogenic substrate assay. The note with it: human plasmin; read-out: Plasmin IC50. The protocol:
as §1, §2

This passage reports IC50 results from US20090170766A1, “Chimeric Kunitz Domains and their Use” (BAYER HEALTHCARE AG, priority 2006, published 2009).

As a reminder, the IC50 is the concentration that gives 50% inhibition.

T2 sequence (P00747 581-810 limits assumed): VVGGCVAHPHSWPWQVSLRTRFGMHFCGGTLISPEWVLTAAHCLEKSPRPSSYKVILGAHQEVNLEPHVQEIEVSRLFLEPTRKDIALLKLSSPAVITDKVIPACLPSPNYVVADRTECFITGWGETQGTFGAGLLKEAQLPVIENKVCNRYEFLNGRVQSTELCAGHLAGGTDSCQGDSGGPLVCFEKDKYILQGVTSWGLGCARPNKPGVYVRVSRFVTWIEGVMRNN
T2 sequence (P00747 97-580 partner limits assumed): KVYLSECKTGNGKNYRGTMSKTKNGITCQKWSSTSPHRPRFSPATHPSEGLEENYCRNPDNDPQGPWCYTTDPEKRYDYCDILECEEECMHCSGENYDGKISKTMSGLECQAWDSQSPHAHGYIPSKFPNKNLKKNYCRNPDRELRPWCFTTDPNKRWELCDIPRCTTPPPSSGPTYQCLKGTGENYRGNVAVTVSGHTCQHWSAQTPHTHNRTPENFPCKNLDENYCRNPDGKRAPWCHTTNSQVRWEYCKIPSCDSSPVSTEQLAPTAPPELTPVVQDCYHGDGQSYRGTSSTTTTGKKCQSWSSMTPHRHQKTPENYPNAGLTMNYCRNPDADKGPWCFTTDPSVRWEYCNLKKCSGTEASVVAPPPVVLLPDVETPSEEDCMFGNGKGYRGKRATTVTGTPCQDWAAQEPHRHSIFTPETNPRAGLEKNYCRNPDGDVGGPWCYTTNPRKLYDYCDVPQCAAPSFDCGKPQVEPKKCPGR

Turning to “SEQ ID NO: 5: hTFPI D1 variant: MSSFCAFKAETGPCRAAHPRWWFNIFTRQCEEFIYGGCEGNQNRFESLEECKKMCTRD”, the results for the half-inhibitory concentration (IC50) in the assay with human trypsin, with human plasma kallikrein and with human plasmin were 8 nM, 3 nM and 24 nM, respectively.
